Measurements reported in patent publication US20240101645A1 (HENRY M JACKSON FOUNDATION FOR THE ADVANCEMENT OF MILITARY …, published 2024).

T1: HCoV-HKU1 spike antigens (bead panel) (HCoV-HKU1, UniProt Q5MQD0 13-1300)
T1 sequence: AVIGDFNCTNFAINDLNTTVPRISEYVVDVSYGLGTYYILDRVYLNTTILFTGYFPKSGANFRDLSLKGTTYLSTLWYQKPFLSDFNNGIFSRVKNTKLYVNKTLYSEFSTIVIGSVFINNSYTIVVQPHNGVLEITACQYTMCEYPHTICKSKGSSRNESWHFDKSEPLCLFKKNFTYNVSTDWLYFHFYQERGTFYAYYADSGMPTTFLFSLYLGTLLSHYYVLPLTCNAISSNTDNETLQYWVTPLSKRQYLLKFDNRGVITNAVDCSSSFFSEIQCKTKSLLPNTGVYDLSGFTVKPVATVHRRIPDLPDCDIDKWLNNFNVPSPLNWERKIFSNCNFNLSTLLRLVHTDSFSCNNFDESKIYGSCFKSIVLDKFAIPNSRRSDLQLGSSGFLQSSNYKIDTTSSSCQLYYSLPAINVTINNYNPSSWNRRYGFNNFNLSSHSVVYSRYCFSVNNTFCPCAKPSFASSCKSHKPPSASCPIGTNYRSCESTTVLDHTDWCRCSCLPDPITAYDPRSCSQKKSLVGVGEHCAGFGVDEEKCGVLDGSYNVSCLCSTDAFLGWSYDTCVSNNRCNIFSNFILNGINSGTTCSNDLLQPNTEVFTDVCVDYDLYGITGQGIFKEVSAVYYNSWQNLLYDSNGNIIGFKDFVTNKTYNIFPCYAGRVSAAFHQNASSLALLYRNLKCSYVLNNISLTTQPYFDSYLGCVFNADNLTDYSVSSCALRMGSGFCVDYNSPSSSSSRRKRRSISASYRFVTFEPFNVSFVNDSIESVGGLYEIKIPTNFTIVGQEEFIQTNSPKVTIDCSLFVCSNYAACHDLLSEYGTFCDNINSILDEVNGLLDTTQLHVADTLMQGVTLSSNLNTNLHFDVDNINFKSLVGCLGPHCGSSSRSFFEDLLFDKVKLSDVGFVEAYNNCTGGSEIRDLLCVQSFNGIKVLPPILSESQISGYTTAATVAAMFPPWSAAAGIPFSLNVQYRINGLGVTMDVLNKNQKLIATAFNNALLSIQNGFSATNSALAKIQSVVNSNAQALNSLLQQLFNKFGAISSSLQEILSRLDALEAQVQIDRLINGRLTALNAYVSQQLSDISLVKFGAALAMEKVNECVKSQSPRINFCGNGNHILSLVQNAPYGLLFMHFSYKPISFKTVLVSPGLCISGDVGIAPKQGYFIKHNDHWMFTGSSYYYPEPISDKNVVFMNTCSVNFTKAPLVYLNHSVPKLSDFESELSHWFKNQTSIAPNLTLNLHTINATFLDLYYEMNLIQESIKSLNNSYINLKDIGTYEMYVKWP

T2: HCoV-OC43 spike antigens (bead panel) (HCoV-OC43, UniProt P36334 14-1297)
T2 sequence: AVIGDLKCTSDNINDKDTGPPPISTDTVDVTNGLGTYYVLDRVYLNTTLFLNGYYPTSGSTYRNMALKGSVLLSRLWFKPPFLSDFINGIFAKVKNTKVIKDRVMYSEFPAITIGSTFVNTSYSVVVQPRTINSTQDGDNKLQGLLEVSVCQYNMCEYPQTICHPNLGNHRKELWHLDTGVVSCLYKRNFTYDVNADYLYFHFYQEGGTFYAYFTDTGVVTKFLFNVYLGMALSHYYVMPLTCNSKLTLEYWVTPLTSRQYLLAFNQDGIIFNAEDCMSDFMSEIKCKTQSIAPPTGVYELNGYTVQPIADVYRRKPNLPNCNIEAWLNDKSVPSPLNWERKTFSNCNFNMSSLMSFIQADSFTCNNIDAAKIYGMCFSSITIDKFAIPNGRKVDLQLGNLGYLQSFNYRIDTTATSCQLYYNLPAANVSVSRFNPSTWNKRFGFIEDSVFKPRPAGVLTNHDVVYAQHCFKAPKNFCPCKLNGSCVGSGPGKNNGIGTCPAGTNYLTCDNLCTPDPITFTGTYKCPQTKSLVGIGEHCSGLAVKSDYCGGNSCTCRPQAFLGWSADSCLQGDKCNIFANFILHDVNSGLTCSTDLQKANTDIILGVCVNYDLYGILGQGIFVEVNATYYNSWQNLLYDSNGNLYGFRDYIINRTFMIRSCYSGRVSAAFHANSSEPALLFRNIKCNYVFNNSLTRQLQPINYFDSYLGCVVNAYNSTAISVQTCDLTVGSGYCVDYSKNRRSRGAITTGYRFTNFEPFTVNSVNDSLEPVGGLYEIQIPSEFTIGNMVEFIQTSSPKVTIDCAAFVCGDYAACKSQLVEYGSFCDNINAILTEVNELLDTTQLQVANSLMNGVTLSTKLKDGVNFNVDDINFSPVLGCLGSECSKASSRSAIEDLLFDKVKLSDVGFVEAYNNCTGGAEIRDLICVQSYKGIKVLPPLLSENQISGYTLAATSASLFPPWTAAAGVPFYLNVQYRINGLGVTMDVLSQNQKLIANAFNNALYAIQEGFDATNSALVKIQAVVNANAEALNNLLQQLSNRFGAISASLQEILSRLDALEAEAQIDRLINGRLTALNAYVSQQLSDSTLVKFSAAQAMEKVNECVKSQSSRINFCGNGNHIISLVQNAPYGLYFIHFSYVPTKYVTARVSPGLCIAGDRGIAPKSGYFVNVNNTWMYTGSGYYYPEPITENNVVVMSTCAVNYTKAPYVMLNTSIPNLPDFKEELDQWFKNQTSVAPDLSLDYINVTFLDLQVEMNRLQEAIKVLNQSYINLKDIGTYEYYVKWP

B1: COV_1149 (antibody, V domains shown)
VH: QVQLVESGGGVVQPGRSLRLSCAASGFTFSSYGMHWVRQAPGKGLEWVAVISYDGSNKYYADSVKGRFTISRDNSKNTLYLQMNSLRAEDTAVYYCAKTGGGYSYGLGNVWGQGTLVTVSS
VL: QSALTQPASVSGSPGQSITISCTGTSSDVGGYNYVSWYQQHPGKAPKLMIYDVSNRPSGVSNRFSGSKSGNTASLTISGLQAEDEADYYCSSYTSSSTLVVFGGGTKLTVLG
notes: human IgG1
B2: COV_2008 (antibody, V domains shown)
VH: QVRVVQSGAEVKNPGASVKVSCKVSGYTLTELSIHWVRQAPGNGLEWMGGFDPEDGETIYAQKFQGRVTMTEDTSTDTAYMELSSLRSDDTAVYYCATAGAITGTPRNFYYYYGMDVWGQGTTVTVSS
VL: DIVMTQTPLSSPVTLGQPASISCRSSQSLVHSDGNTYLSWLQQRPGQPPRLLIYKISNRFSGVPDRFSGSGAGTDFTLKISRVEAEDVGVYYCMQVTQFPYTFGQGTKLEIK
notes: human IgG1
B3: COV_1201 (antibody, V domains shown)
VH: QVQLVQSGAEVKKPGASMKVSCKASGYTFTGYYIHWVRQAPGQGLEWMGRINPNSGGTNYAQKFQGRVTMTRDTSISTAYMELSRLRSDDTAVYYCAREYYYVPYGMDVWGQGTTVTVSS
VL: QSALTQPASVSGSPGQSITISCTGTSSDVGGYNFVSWYQHHPGKAPKLMIYEVSNRPSGVSNRFSGSKSGNTASLTISGLQAEDEADYYCSSYTSSSTYVFGTGTKVTVL
notes: human IgG1
B4: COV_2215 (antibody, V domains shown)
VH: EVQLVESGGGLVKPGGSLRLSCAASGFTFSHAWMSWVRQAPGKGLEWVGRIKSKTDGGTADYAAPVKGRFTISRDDSKNTLYLQMNSLKTEDTAVYYCATIRYYYDSSAYLNDAFDIWGQGTMVTVSS
VL: SYELTQPPSVSVSPGQTARITCSGDALPKKYAYWYQQKSGQAPVLVIYEDSKRPSGIPERFSGSSSGTMATLTISGAQVEDEADYYCYSTDSSGNHRVFAGGTKLTVLG
notes: human IgG1
B5: COV_3129 (antibody, V domains shown)
VH: QVQLQQWGAGLLKPSDTLSLTCAANGGGSFSGYYLGYIRQSPGKGLEWIGEINHNGGTNYNPSLKSRVTISGDTSKNQFSLKLSSVTAADTAIYYCARSRDSSLGDAVWYEYWGQGTLITVSS
VL: EIVLTQSPATLSLSPGERATLSCRASQSVDIYLAWYQQRPGQAPRLLISDASKRATGVPARFSGSGSGTDFTLTINSLEPEDFAIYYCQQRRDWPINFGQGTRLEIKR
notes: human IgG1
B6: COV_1184 (antibody, V domains shown)
VH: QVQLQQWGAGLLKPSETLSLTCAVYGGSFSGYYWSWIRQPPGKGLEWIGEINHSGNTTYNPSLKSRVTISVDTSKNQFSLKLSSVTAADTAVYYCARGLVITYYYDSSGKPFDPWGQGTLVTVSS
VL: not shown
notes: human IgG1
B7: COV_2205 (antibody, V domains shown)
VH: EVQLVESGGGLVKPGGSLRLSCAASGFTFSDYYMIWIRQAPGEGLEWVSYISSRSSYTNYADSVKGRFTISRDNARNSLYLQMNSLRAEDTAVYYCARGQHDLLTGYYSWAYFDYWGQGTLVTVSS
VL: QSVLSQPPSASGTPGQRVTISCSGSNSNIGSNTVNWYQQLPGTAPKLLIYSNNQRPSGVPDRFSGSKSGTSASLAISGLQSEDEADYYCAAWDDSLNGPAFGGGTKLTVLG
notes: human IgG1
B8: COV_1177 (antibody, V domains shown)
VH: QVQLVESGGGVVQPGRSLRLSCAASGFTFSSYGMHWVRQAPGKGLEWVAVIWYDGSNKYYADSVKGRFTISRDNSKNTLYLQMNSLRAEDTAVYYCARDPLGAVAGYFDYWGQGTLVTVSS
VL: SYVLTQPPSVSVAPGQTARITCGGNNIGSKSVHWYQQKPGQAPVLVVYDDSDRPSGIPERFSGSNSGNTATLTISRVEAGDEADYYCQVWDSSSDHHWVFGGGTKLTVLG
notes: human IgG1
B9: COV_2125 (antibody, V domains shown)
VH: EVQLVESGGGVVQPGRSLRLSCAASGFTFSSYGMHWVRQAPGKGLEWVAVISYDGSNKYYADSVKGRFTISRDNSKNTLSLQMNSLRPEDTAVYYCAKDSPYYYDSSGYYPGYFQDWGQGSLVTVSS
VL: DIQMTQSPSSLSASIGDRVTITCRASQTISDYLNWYQQKPGKAPNLLIYAASTLQSGVPSRFSGSGSGTDFTLTISSLQPEDFATYYCQQSYITPRTFGQGTKVEIK
notes: human IgG1
B10: COV_3069 (antibody, V domains shown)
VH: EVQLVESGGGLVKPGGSLRLSCAASGFTFGSYTMNWVRQAPGKGLEWVSSIDTTSSSIYYADSLKGRFAISRDSAKNSLYLQMNRLRAEDTAVYYCARGNGHSYDSSGYHYGMYFDYWGQGTLVTVSS
VL: DIQMTQSPSTLSASVGDRVTITCRASQSISRWLAWYQQKPGKAPKLLIYEVSSLENGVPSRFSGSRSGTEFTLTISSLQPDDFAIYYCQQYNTYSRTFGQGTKVEIKR
notes: human IgG1
B11: COV_2169 (antibody, V domains shown)
VH: EVQLVESGGGVVQPGRSLRLSCAASGFTFSRYAMHWVRQAPGKGLEWVAVISYEGSNKYYADSVKGRFTISRNNSNNTLSLQMNSLRPDDTAVYYCVRSGGHYFDAFDLWGQGTMVTVSS
VL: EIVLTQSPGTLSLSPGERATLSCRASQSVSRNYVAWYQQKPGQAPRLLIYGASSRATGIPDRFSGSGSGTDFTLTISRLEPEDFALYYCQQYGSSYTFGQGTKLEIKR
notes: human IgG1

target: SARS-CoV-2 S on pseudovirions (Wuhan Hu-1 / IL1/2020, last 18 amino acids removed) (SARS-CoV-2, UniProt P0DTC2 14-1273); assay: cell-based or functional assay

Binder | Mean IC50, pSV neutralization [µg/ml] | Mean IC80, pSV neutralization [µg/ml]
B1 | ≥ 25 | ≥ 25
B2 | 0.02 | 0.31
B3 | 0.09 | 0.3

target: T1, HCoV-HKU1 spike antigens (bead panel); assay: multiplex bead assay

Binder | binding result
B4 | no binding
B5 | no binding
B6 | no binding
B7 | no binding
B8 | no binding
B9 | no binding
B1 | no binding
B10 | no binding
B11 | no binding
B2 | no binding
B3 | no binding

target: SARS-CoV-1 spike antigens (bead panel) (SARS-CoV-1, UniProt P59594 14-1195); assay: multiplex bead assay

Binder | binding result
B4 | no binding
B5 | no binding
B6 | no binding
B7 | no binding
B8 | no binding
B9 | no binding
B1 | no binding
B10 | no binding
B11 | no binding
B2 | no binding
B3 | no binding

target: T2, HCoV-OC43 spike antigens (bead panel); assay: multiplex bead assay

Binder | binding result
B4 | no binding
B5 | no binding
B6 | no binding
B7 | no binding
B8 | no binding
B9 | no binding
B1 | no binding
B10 | no binding
B11 | no binding
B2 | no binding
B3 | no binding
